Data from the nanobody polyreactivity screen of Harvey et al. (2022).

Test: yeast display, Sf9 membrane polyspecificity reagent, FACS + sequencing; frameworks hold sequencing errors
Method in brief: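 Nanobodies came from a synthetic yeast display library in Saccharomyces cerevisiae BJ5465, induced with galactose for 36–48 hours and stained for 1 hour at 4 °C with 10% biotinylated, detergent-solubilized Sf9 membrane reagent. Cells were enriched on streptavidin microbeads and then FACS-sorted, with low and high (top ~1%) gates set on anti-HA fluorescence for expression and streptavidin fluorescence for reagent binding. Each polyreactivity label reflects the gate a clone came from. Genes were amplified by colony PCR, sequenced by MiSeq 2 × 250 and filtered by CDR length.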

Row | Sequence | polyreactivity (PSR sort gate)
1 | QVQLVESGGGLVQAGGSLRLSCAASGSIFAINAMGLYRQAPGKERELVARISWSGGRTYYADSVKGRFTISRDNAKNSVYLQMNSLKPEVTAVYYCAARYYWGQVTQVTVSS | high polyreactivity
2 | QVQLVESGGGLVQAGGSLRLSCAASGITIFGYAMGWYRQAPGKERELVAAINYSGDSTYYADSVKGRFTISRDNAKNTVYLQMNSVKPEDTAVYYCAATRSYRQPGPKYKSYYYLYYYWGQGTQVTVSS | high polyreactivity
3 | QVQLVESGGGLVQAGGSLRLSCAASGFTFGVYAMGWYRQAPGKERELDAAISTTVGSTYYADSVKGRFTISRDNAKNTVYLQMNSLKPEDTAVYYCAAEYTGYINYYIYEYWGQGTQVTVSS | low polyreactivity
4 | QVQLVESGGGLVHAGGSLRLTCAASGRTYRNGMGWYRQAPGKERELVAAISVSGTRTYYADSVKGRFTISRDNAKNTVYLQMNSLKPEDTAVYYCNADLSPTADDELDYRLVRDDYWGQGTQVTVSS | low polyreactivity
5 | QVQLEESGVGLVQAGGSLRFSCAASGRIFYSYAMGCDRQAPGKERELVATISSAGSTYYADSVKGRFTISRDNAKNTVYLQMNSLKPEDTAVYYCAARRPRRYGYWGLGTQVTVSS | high polyreactivity
6 | QVQLVESGGGLVQAGGRLRLSCAASGSTFYLNAMGWYRPAHGKERELVAAITRIGGSTYYADSVKGRFTISRDNAKNTVYLQMYSLTPEDTAVYYCAKDYGQARHDRYGYWGAGTQVTVSS | low polyreactivity
7 | QVQLVESGGGLVQAGGSLRLSCAPSGSISQTYAMGWYRQAPGKERELVAAISSSGASTYYADSVKGRFTISRDNAKNTVYLQMNSLKPEDTAVYYCAALGRYRYIYNYWGQGTQVTVSS | high polyreactivity
8 | QDQLVESGGGLVQAGGSLRLSCAASGYTFSYYAMGWYRQAPGKERELVAAITSTGSTYYADSVKGRFTISRDYAKNTVYLQMNILKPEDTAVYYCNVDDATVGPVDYWGQGTQVTVSS | low polyreactivity
9 | QVQLVESGGGLVQAGGSLRLSCAASGGTFRRYTMGWYRQAPGKERELVAVISRSGGSTYYADSVKGRFTISRDNAKNTVYLQMNSLKPEDTAVYYCAVVYYNGYDWGQGTQVTVSS | high polyreactivity
10 | QVQLVESGGGLVQAGGSLRLSCAASGRTFLLNAMGWYRQAPGKERELVAAITRSGVITYYADSVKGRFTISRDIAKNTVYFQMNSLKPEDTAVFYCAAQLRYSYLRPSYYYWGQGTQVTVSS | high polyreactivity
11 | QVQLVESGGGLVQAGGSLRLSCAASGSTFEQYAMGWYRQAPGKERELVASISTGGGRTYYADSVKGRFTISRDNAKNTVFLQMNSLKPEDTAVYYCNKRYRGYKTGYSRYDYWGQGTQVTVSS | low polyreactivity
12 | QVQLVESGGGLVQAGGSLRLSCAASGRIFDDNAKGCYRQPPGKERELLASLTVSTGSTYYADSVKGRFTISRDTAKNTVYLQMNSLKPEDTAVYYCAAPYITPYGTYVFSSDYWGQGTQVTVSS | low polyreactivity
13 | QVQLVESGGGLVQAGGSLRLSCAASGFTFKGNTMGWYRQAPGKERELVATITRGGTTYYADSVKGRFTISRDNAKNTVYLQMNSLKPEDTSVYYCAAVVYRPYRWQYDYWGQGTQVTVSS | high polyreactivity
14 | QDQLVESVGGLVQAGGSLRLSCAASGSIFIGYAMGWYRQAPGKERELVAAITSGGSTYADSVKGRFTISRDNAKNTVYLQMNSLKPEDTAVYYCAARFFLVTLDYCGQGTQVTVSS | low polyreactivity
15 | QVQLGESGGGLVQAGGSVRLICAASGGIFEWNAMGWYRQAPGKERELDAAISNTGGSTSYADSVKGRFTISRDNAMNSVYLQMNCLKPEDTAVYYCNRFPPRRYYARYYSWGQGTQVTVSS | high polyreactivity
16 | QVQLVESGGGLVQAGGSLRLSCAGSGSTFGWYVMGWYRQAPGKERELVASITGSGGSTYYADSVKGRFTISRDNAKNTAYLQMNSLKPEDTAVYYCAADTGWYDDWTHDYWGQGTQVTVSS | low polyreactivity
17 | QVQLVESGGGLVQAGGSLRLSCAASGRTFPRYVMGWYRQAPGKERELVAAITSSGGSTYYADSVKGRFTISRDNAKNTVYLQMNSLKPEDTAVYYCAAYARPYSGPYAYRLDYWGQGTQVTVSS | high polyreactivity
18 | QVQLVESGGGLVQAGGSLRLSCAASGSTFLPYALGWYRQAPGKERELVAAIDWNGGRTYYADSVKGRFTISRDNAKNTVYLQMNSLKPEDTAVYYCAKLGRAAQGNYYWGQGTQVTVSS | high polyreactivity
19 | QVQLVESGGGLVQAGGSLRLSCAASGSIFPYYTMGWYRQAPGKERELVAAISGSGGSTYYADSVKGRFTISRDNAKNTVYLQMNSLKPEDTAVYYCAAYRRTWFDYWGQGTQVNVSS | high polyreactivity
20 | QVQLVESGGGLVQAGGSLRLSCAASGSIFPTYAMGWYRQAPGKEWELVAAIRGDGSTNYADSVKGRFTISRDNAKNTVYLQMNSLKPEDTAVSYCAAVSSEYVFRYGGYWGQGTQVTVSS | low polyreactivity
21 | QVQLVESGGGLVQAGGSLRLSCAASGIIFKYYAMGWYRQAPGKERELVAVISRSGGGTYYADSVKGRFTISRDNAKNTVYLQMNSLKPEDTAVYYCAAERSSGFDYWGQGTQVTVSS | high polyreactivity
22 | QVQLVESGGGLVQAGGSLRLSCAASGRIIYSNGMGWYRQAPGKERELVAAISSGGSTYNADSVKGRFTISRDNAKNTVYLQMNSLKPEDTAVYYCAADIDYERDRYDYWGQGSQVTVSS | low polyreactivity

Row | Sequence | polyreactivity (PSR sort gate)
23 | QVQLVESGGGLVQAGGSLRLSCAASGSIFYFNAMGWYRPAPGKERELVAAINISGSSTSYADSVKGRFTISRDNAKNTVYLQMNSLKPEDTAVYYCAAEDEPRILIVRVWDYYWGQGTQVTVSS | low polyreactivity
24 | QVQLVESGGGLVQAGGSLRLSCAASGRIFVTYAMGWYRQAPGTERELVAAINSSVSSTRYADSVKGRFTMSRDNAKNTVYLQMNSLKPEDTAVYYCAAVYRYVRPIAKDEYWGQGTQVTVSS | low polyreactivity
25 | QVQLVESGGGLVQAGGSLRLSCAASGRTFFGYAMGWYIQAPGKERELVAAITWNGGRTYYADSVRGRFTISRDNAKNTVYLQMNSLKPEDTAVYYCAARVGDGVRRYNYWGQGTQVTVSS | high polyreactivity
26 | QVQLVESGGGLVQAGGSLRLSCAASGSTFANYVMGWYRQAPGKEREVVAAISWTGGSTYYADSVKGRFTISRDNAKNTVYLQMHSLKPEDTAVYYCNAASYAWLWHPKSGLYDYWGQGTQVTVSS | low polyreactivity
27 | QVQLVESGGGLVQAGGSLRLSCAASGRIFDRYVMGWYRQAPGKERELVAAISSGGSTYYADSVKGRFTISRDNAKNTVYLQMNSLKPEDTAVYYCAADRRSKYDYWGQGTQVTVSS | low polyreactivity
28 | QVQLVESGGGLVQAGGSLRLSCAASGYIFDRYAMGWYRQAPGKERELVAAISGRGGSTYYADSVKGRFTISRDNAKNTVSLQMNSLKPEDTAVYYCARDVYVRNGQRARYDSWGQGTQVTVSS | high polyreactivity
29 | QVQLVESGGGLVQAGGSLRLSCAASGFIFGYYAMGWYRKAPGKERELVAAITSGDGSTYADSVKGRFTISRDNEKNTVYLQMNSLKPEDTAVYYCAAVFRYYTYSGAVRYYYWGQGTQVTVSS | high polyreactivity
30 | QVQLVESGGGLVQAGGSLRLSCAASGRIFGPYTKGWYRQAPGKERELVATISYSGSTTYYADSVKGRFTISRDNAKNTVYLQMNSLKPEDTAVYYCAAYYWARRDWGQGTQVTVSS | high polyreactivity
31 | QVQLVESGGGLVQAGGSLRLSCAASGSIFYRYAMGWYRQAPGKERELVASISSGVSTNYADSVKGRFTISRDNAKNTVYLQMNSLKPEDTAVYYCAAYYRGWSSSYWYPAYNYWGQGTQVTVSS | low polyreactivity
32 | QDQLVESGGGLVQAGGSLRLSCAASGSIFWLYAMGWYRQAHGKERELVASITGGGSTNYADSVKGRFTISRDNAKNTVYLQMNSLKPEDTAVYYCAKRYYRTGRKRTGLDYWGQGTQVTVSS | high polyreactivity
33 | QVQLVESGGGLVQAGGSLRLSCAASGYIFRYYVMGWYRQEPGKERELVAAITFSGGNTYYADSVKGRFTISRDNAKITVYLQMNSLKPEDTAVYYCAADVLYVGGSDYDYWVQGTQVTVSS | low polyreactivity
34 | QVQLVESGGGLVQAGGSLRLSCAASGITFWKYTMGWYIHAPGKERELVASITWSGGSTYYADSVKGRFTISRDNAKNTVYLQMNSLKPEDTAVYYCNAEYLRIDLDYWGQGTQVTVSS | low polyreactivity
35 | QVQLVESGGGLVQAGGSLRLTCAASGSIFDSNAMGWYRQAPGKERELVADIRGIGGSTFYADSVKWRFTISRDNAKNTVYLQMNSLKPEDTAVYYCAAVGKSPSRFGYWGQGTQVTVSS | low polyreactivity
36 | QVQLVESGGGLVQAGGSLRLSCAASGLTFGSNTMGWYRQAPGKERELVAAITSNGGSTYYADSVKRRFTISRDYAKNTVYLQMNSLKPEDTAVYYCAARSYDGYYRYYYWGQGTQVTVSS | low polyreactivity
37 | QVQIVESGGGLVQAGGSLRLSCAASGSTFKWYAMGWYRQSTGKERQLVAAITSTDSTTYADSLKGRFTISRDNAKNTVYLHMNSLKPEDTAVYYCNRLYYHWYGGLDYWGLGTQVTVSS | high polyreactivity
38 | QVQLVESGVGLVQAGGSLRLSCAASGSTFRGYAMGWYRQAPGKERELVAAISGIGGSTYYADSVKGRFTISRDNAKNTVYLQMNSLKPEDTAVYYCNAVSGDSGDYWGQGTQVTVSS | low polyreactivity
39 | QVQLVESGGGLVQAGGSLRLSCAASGNTLIVNAMGWYRQAPGKERELVAAITRDGRTNYADSVKGRFTISRDNAKNTFYLQMNSLKPEDTAVYYCNALSADWFPEEDYWGQGTQVTVSS | low polyreactivity
40 | QVQLVESGGGLVQAGGSLRLSCAASGFTFYHYAMGWYRQAPGKERELVAAIDNGGSTYADSVKGRFTISRDNAKNTVYLQMNSLKPEDTAVYYCAAVYLRYINGFYYWGQGTQVTVSS | low polyreactivity
41 | QVQLVESGAGLVQAGVSLRLSCAASGSIFADYAMGWYRQAPGKERELVAVISRRGGTTYYADSVKGRFTISRDNAKNTVYLPMNSLKPEDTAVYYCAARRSFNEYDYWGQGTQVTVSS | high polyreactivity
42 | QVQLVESGGGLVQAGGSLRLSCAASGRIFSGYAMGWYRQAPGKERELVAAITSVGSTNYADSVKGRFTISRDNAKNNVYLQMNSLKPEDTAVYYCAARSQSYYRYRSYGYWGQGTQVTVSS | high polyreactivity
43 | QVQLVESGGGLVQAGGSLRLSCAASGSTLAIYAMGWYRQAPGKEREWVAAISRSGGTTYYADSVKGRFTISRDNAKNTVYLQMNSLKPEDTAVYYCYPYFWYPDGYTYDYWGQGTQVTVSS | high polyreactivity
